Reference: paper doi:10.1101/2020.02.21.960245 (bioRxiv, 2020)
Like-named read-outs stand apart in the source and are kept apart here.

B5: HisFlagRec114 (natural protein)
chain: MYEYCSVVIKKYSKYTIPSFAPNGFQSMLEPPQIDKWQHLSANCTLQFRVLLMDSRQILINVVLNNSTLLENIRLPLGDNQDLIQFSCKSPIISCKYISEEFGPRMLRRFQMNLPNDVEFNRTVVSLKNLNFVLRTARTSIAQSTITSQVQGNNNGTKVCFTEGPKVSSYTNPNTQFQTQNMIMDFSQRYQEESERESNNRSNITLPHDSIQIAQQIWPNTDLNVVQSSQDLNTPMATQTVLGRPESLIVQPLEVSQSPPNTTNCLPNAENKKKKVDTTSDFTSRKEIALCKTGLLETIHIPKERESQMQSVTGLDATPTIIWSPGKDNTAKKNTSNKKNIDDKLTNPQKSGNTHTPDRNKEVLPNGTLNETRKEASPSEGLTIRVKNVNRNASRKISKRLIKEKLKDEEFMKWVNKVETVLNKMFEK

How the values were obtained:
[1] = molecular target: B5; experiment: SEC-MALS
[2] = molecular target: the molecule itself; experiment: SEC-MALS
[3] = molecular target: the molecule itself; experiment: SEC-MALS; remark: listed apart in the source
[4] = molecular target: T1, untagged Rec114 (S. cerevisiae, UniProt P32841 1-428); experiment: SEC-MALS
T1 sequence: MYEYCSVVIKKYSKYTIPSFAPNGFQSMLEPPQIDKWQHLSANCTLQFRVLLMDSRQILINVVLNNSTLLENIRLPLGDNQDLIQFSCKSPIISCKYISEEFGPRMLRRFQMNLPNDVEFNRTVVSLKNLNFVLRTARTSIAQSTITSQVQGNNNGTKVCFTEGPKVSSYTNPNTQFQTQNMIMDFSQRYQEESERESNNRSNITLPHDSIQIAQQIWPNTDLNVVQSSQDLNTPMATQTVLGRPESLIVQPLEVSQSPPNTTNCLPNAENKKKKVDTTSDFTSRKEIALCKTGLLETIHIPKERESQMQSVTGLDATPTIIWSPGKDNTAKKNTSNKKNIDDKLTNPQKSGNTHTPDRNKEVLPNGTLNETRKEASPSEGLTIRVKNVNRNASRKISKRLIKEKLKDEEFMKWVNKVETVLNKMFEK

[5] = molecular target: the molecule itself; experiment: cross-linking
[6] = molecular target: T2, Rec114(375-428) (S. cerevisiae, UniProt P32841 375-428); experiment: SEC-MALS
T2 sequence: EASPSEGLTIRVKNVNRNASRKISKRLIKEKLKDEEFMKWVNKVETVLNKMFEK

B1: MBPMei4 (natural protein)
chain: MSRGKLEDMEQKETSEVDWIICFALIQSRNPTLWKRALSRKKGDVEDVGALKSEKNLKINPRENSKHIYKWVAPFENGFLNNKSLFAHLEPIYNFLCQNKYKSFEDAVGLKELQSFSKDVSTADINNWFLPRYKILLKILSLKTKEIDFRGLSQVFQTLQILLVSHYSHRIDSDSSFKRTLIDVHVFNFIAKFLFNRILLKKNQNDPKWLQNFYDQGDGKHLCDKVDYKRLCSLHFTLIYSIINIQLIKIKTNQTFEPQILKYVSVLKLIEHILIIIESLIHVLIRFVSKHKLICINRKKAYCRVYLERELSLKKTYLKNFYSVISGVPEKELGGLLKILKIVILSLLETFESIEWQHLKPFLEKFPAHEISLQKKRKYIQAALLITAERNLIARFRLSRWFNETENI
With B1 the “stoichiometry N” value [1] was 2 Rec114 per Mei4.

B2: untagged Mer2 (natural protein)
chain: MVARGRTDEISTDVSEANSEHSLMITETSSPFRSIFSHSGKVANAGALEESDKQILEWAGKLELESMELRENSDKLIKVLNENSKTLCKSLNKFNQLLEQDAATNGNVKTLIKDLASQIENQLDKVSTAMLSKGDEKKTKSDSSYRQVLVEEISRYNSKITRHVTNKQHETEKSMRCTQEMLFNVGSQLEDVHKVLLSLSKDMHSLQTRQTALEMAFREKADHAYDRPDVSLNGTTLLHDMDEAHDKQRKKSVPPPRMMVTRSMKRRRSSSPTLSTSQNHNSEDNDDASHRLKRAARTIIPWEELRPDTLESEL
With B2 the “stoichiometry N” value [2] was 4.

B3: coiled-coil domain of Mer2 (residues 77-227) (domain or fragment)
chain: IKVLNENSKTLCKSLNKFNQLLEQDAATNGNVKTLIKDLASQIENQLDKVSTAMLSKGDEKKTKSDSSYRQVLVEEISRYNSKITRHVTNKQHETEKSMRCTQEMLFNVGSQLEDVHKVLLSLSKDMHSLQTRQTALEMAFREKADHAYDR
For B3, the “stoichiometry N” value [3] was 4.

B4: untagged Mei4 (natural protein)
chain: MSRGKLEDMEQKETSEVDWIICFALIQSRNPTLWKRALSRKKGDVEDVGALKSEKNLKINPRENSKHIYKWVAPFENGFLNNKSLFAHLEPIYNFLCQNKYKSFEDAVGLKELQSFSKDVSTADINNWFLPRYKILLKILSLKTKEIDFRGLSQVFQTLQILLVSHYSHRIDSDSSFKRTLIDVHVFNFIAKFLFNRILLKKNQNDPKWLQNFYDQGDGKHLCDKVDYKRLCSLHFTLIYSIINIQLIKIKTNQTFEPQILKYVSVLKLIEHILIIIESLIHVLIRFVSKHKLICINRKKAYCRVYLERELSLKKTYLKNFYSVISGVPEKELGGLLKILKIVILSLLETFESIEWQHLKPFLEKFPAHEISLQKKRKYIQAALLITAERNLIARFRLSRWFNETENI
For B4, the “stoichiometry N” value [4] was 2 Rec114 per Mei4.

B5: binds [5].

With MSRGKLEDMEQKETSEVDWIICFALIQSRNPTLWKRALSRKKG (domain or fragment) [Mei4(1-43)] the “stoichiometry N” value [6] was 2 Rec114 per Mei4.

B6: untagged wild-type Rec114(325-428) (domain or fragment)
chain: PGKDNTAKKNTSNKKNIDDKLTNPQKSGNTHTPDRNKEVLPNGTLNETRKEASPSEGLTIRVKNVNRNASRKISKRLIKEKLKDEEFMKWVNKVETVLNKMFEK
B6 was tested, and the “stoichiometry N” value [3] was 2.
